Patent US20200079833A1 (AstraZeneca / MedImmune, published 2020)
Starred links: 1 amine or outer side, 2 acyl side, 3 side chain; linkers in the order of their positions; H or OH if unused. Non-standard residues stand in square brackets, D forms with d. Groups on a side chain read outwards from the residue. Primed or numbered codes have the meaning given here. No end group written: not given here. *: point of attachment. γGlu = O=C(O)[C@H](CCC(=O)[*:2])N[*:1]; αMeF = C[C@](N)(Cc1ccccc1)C(=O)O; αMeK = C[C@](N)(CCCCN)C(=O)O; Lauroyl = CCCCCCCCCCCC(=O)*; αMeS = C[C@](N)(CO)C(=O)O; PEG2′ = not defined here; Aib = CC(C)(N)C(=O)O

T1: glucose-dependent insulinotropic peptide (gastric inhibitory polypeptide) receptor (GIPR), primary cAMP assay … (human, UniProt P48546 22-466)
T1 sequence (looked up): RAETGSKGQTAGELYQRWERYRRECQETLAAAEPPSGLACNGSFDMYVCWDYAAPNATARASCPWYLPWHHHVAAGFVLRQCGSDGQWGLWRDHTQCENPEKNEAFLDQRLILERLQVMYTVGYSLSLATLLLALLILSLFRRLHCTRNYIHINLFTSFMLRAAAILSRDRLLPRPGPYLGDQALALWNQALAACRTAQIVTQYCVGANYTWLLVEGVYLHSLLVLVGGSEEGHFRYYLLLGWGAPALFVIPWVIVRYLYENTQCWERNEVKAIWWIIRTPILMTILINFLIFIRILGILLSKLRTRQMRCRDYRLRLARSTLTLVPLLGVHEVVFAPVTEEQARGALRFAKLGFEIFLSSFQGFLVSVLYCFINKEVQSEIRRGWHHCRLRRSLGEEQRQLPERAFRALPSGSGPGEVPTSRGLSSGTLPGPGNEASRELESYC


Assays:
Experiment in all cases: cell-based or functional assay
[1] = molecular target: GLP-1 receptor (GLP-1R), primary cAMP assay cell line (human, UniProt P43220 24-463)
[2] = molecular target: glucagon receptor (GCGR), primary cAMP assay cell line (human, UniProt P47871 26-477)
glucagon receptor (GCGR), primary cAMP assay cell line, sequence (P47871 26-477): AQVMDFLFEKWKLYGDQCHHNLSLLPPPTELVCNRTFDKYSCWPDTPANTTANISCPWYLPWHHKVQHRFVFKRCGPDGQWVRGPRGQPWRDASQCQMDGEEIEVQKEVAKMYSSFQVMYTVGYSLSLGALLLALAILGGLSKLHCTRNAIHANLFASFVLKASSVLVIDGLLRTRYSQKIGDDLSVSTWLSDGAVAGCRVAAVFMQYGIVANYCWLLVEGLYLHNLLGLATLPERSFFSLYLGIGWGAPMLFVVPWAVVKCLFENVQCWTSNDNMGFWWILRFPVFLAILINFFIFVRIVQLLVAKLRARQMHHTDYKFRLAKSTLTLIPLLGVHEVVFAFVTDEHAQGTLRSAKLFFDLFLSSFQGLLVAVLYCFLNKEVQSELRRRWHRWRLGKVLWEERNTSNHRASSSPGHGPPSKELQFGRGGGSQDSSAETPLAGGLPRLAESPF

[3] = molecular target: T1, glucose-dependent insulinotropic …

| Binder | cAMP Primary assay EC50, Mean pM GLP-1R [1] [pM] | cAMP Primary assay EC50, n1 [1] [nM] | cAMP Primary assay EC50, n2 [1] [nM] | cAMP Primary assay EC50, n1 [2] [nM] | cAMP Primary assay EC50, n2 [2] [nM] | cAMP Primary assay EC50, n1 [3] [nM] | cAMP Primary assay EC50, n2 [3] [nM] |
| --- | --- | --- | --- | --- | --- | --- | --- |
| H[Aib]EGS[αMeF]TSDVSK([PEG2′-PEG2′-γGlu-Lauroyl])YLEGK([PEG2′-PEG2′-γGlu-Lauroyl])AA[αMeK]EFIAK([PEG2′-PEG2′-γGlu-Lauroyl])VVEGG-NH2 [SEQ ID NO: 460] | 78.1 | 0.0674 | 0.0888 | 20 | 20 | 20 | 20 |
| H[Aib]EGS[αMeF]TSDK([PEG2′-PEG2′-γGlu-Lauroyl])SSYLEGK([PEG2′-PEG2′-γGlu-Lauroyl])AA[αMeK]EFIAFK([PEG2′-PEG2′-γGlu-Lauroyl])VEGG-NH2 [SEQ ID NO: 472] | 287 | 0.297 | 0.277 | 19.9 | 19.9 | 19.9 | 19.9 |
| H[Aib]EGS[αMeF]TSDVSK([PEG2′-PEG2′-γGlu-Lauroyl])YLEGEK([PEG2′-PEG2′-γGlu-Lauroyl])A[αMeK]EFIAK([PEG2′-PEG2′-γGlu-Lauroyl])VVEGG-NH2 [SEQ ID NO: 461] | 110 | 0.0745 | 0.145 | 19.8 | 19.8 | 19.8 | 19.8 |
| H[Aib]EGS[αMeF]TSDVSK([PEG2′-PEG2′-γGlu-Lauroyl])YLEK([PEG2′-PEG2′-γGlu-Lauroyl])EAA[αMeK]EFIAFK([PEG2′-PEG2′-γGlu-Lauroyl])VEGG-NH2 [SEQ ID NO: 475] | 288 | 0.228 | 0.347 | 19.5 | 19.5 | 19.5 | 19.5 |
| H[Aib]EGS[αMeF]TSDV[αMeS]SYK([PEG2′-PEG2′-γGlu-Lauroyl])EGK([PEG2′-PEG2′-γGlu-Lauroyl])AA[αMeK]EFIAFK([PEG2′-PEG2′-γGlu-Lauroyl])VEGG-NH2 [SEQ ID NO: 484] | 166 | 0.163 | 0.168 | 19.9 | 19.9 | 19.9 | 19.9 |
| H[Aib]EGS[αMeF]TSDV[αMeS]SK([PEG2′-PEG2′-γGlu-Lauroyl])LEGEK([PEG2′-PEG2′-γGlu-Lauroyl])A[αMeK]EFIAFK([PEG2′-PEG2′-γGlu-Lauroyl])VEGG-NH2 [SEQ ID NO: 481] | 143 | 0.137 | 0.149 | 19.8 | 19.8 | 19.8 | 19.8 |
| H[Aib]EGS[αMeF]TSDVSK([PEG2′-PEG2′-γGlu-Lauroyl])YLEGK([PEG2′-PEG2′-γGlu-Lauroyl])AA[αMeK]EFIAFK([PEG2′-PEG2′-γGlu-Lauroyl])VEGG-NH2 [SEQ ID NO: 476] | 216 | 0.174 | 0.257 | 19.8 | 19.8 | 19.8 | 19.8 |
| H[Aib]EGS[αMeF]TSDK([PEG2′-PEG2′-γGlu-Lauroyl])SSYLEGEK([PEG2′-PEG2′-γGlu-Lauroyl])A[αMeK]EFIAFK([PEG2′-PEG2′-γGlu-Lauroyl])VEGG-NH2 [SEQ ID NO: 473] | 434 | 0.399 | 0.47 | 19.6 | 19.6 | 19.6 | 19.6 |

More lines, now with the values ahead:

| cAMP Primary assay EC50, Mean pM GLP-1R [1] [pM] | cAMP Primary assay EC50, n1 [1] [nM] | cAMP Primary assay EC50, n2 [1] [nM] | cAMP Primary assay EC50, n1 [2] [nM] | cAMP Primary assay EC50, n2 [2] [nM] | cAMP Primary assay EC50, n1 [3] [nM] | cAMP Primary assay EC50, n2 [3] [nM] | Binder |
| --- | --- | --- | --- | --- | --- | --- | --- |
| 244 | 0.229 | 0.258 | 19.6 | 19.6 | 19.6 | 19.6 | H[Aib]EGS[αMeF]TSDV[αMeS]SYK([PEG2′-PEG2′-γGlu-Lauroyl])EK([PEG2′-PEG2′-γGlu-Lauroyl])EAA[αMeK]EFIAFK([PEG2′-PEG2′-γGlu-Lauroyl])VEGG-NH2 [SEQ ID NO: 483] |
| 117 | 0.101 | 0.133 | 20 | 20 | 20 | 20 | H[Aib]EGS[αMeF]TSDV[αMeS]SK([PEG2′-PEG2′-γGlu-Lauroyl])LEGEK([PEG2′-PEG2′-γGlu-Lauroyl])A[αMeK]EFIAK([PEG2′-PEG2′-γGlu-Lauroyl])VVEGG-NH2 [SEQ ID NO: 465] |
| 82 | 0.0695 | 0.0944 | 20 | 20 | 20 | 20 | H[Aib]EGS[αMeF]TSDV[αMeS]SK([PEG2′-PEG2′-γGlu-Lauroyl])LEK([PEG2′-PEG2′-γGlu-Lauroyl])EAA[αMeK]EFIAK([PEG2′-PEG2′-γGlu-Lauroyl])VVEGG-NH2 [SEQ ID NO: 463] |
| 374 | 0.277 | 0.47 | 19.6 | 19.6 | 19.6 | 19.6 | H[Aib]EGS[αMeF]TSDK([PEG2′-PEG2′-γGlu-Lauroyl])SSYLEK([PEG2′-PEG2′-γGlu-Lauroyl])EAA[αMeK]EFIAFK([PEG2′-PEG2′-γGlu-Lauroyl])VEGG-NH2 [SEQ ID NO: 471] |
| 290 | 0.279 | 0.3 | 19.9 | 19.9 | 19.9 | 19.9 | H[Aib]EGS[αMeF]TSDK([PEG2′-PEG2′-γGlu-Lauroyl])SSYLEGEAA[αMeK]K([PEG2′-PEG2′-γGlu-Lauroyl])FIAFK([PEG2′-PEG2′-γGlu-Lauroyl])VEGG-NH2 [SEQ ID NO: 474] |
| 264 | 0.226 | 0.302 | 19.6 | 19.6 | 19.6 | 19.6 | H[Aib]EGS[αMeF]TSDVSK([PEG2′-PEG2′-γGlu-Lauroyl])YLEGEK([PEG2′-PEG2′-γGlu-Lauroyl])A[αMeK]EFIAFK([PEG2′-PEG2′-γGlu-Lauroyl])VEGG-NH2 [SEQ ID NO: 477] |
| 118 | 0.103 | 0.134 | 19.8 | 19.8 | 19.8 | 19.8 | H[Aib]EGS[αMeF]TSDVSK([PEG2′-PEG2′-γGlu-Lauroyl])YLEGEAA[αMeK]K([PEG2′-PEG2′-γGlu-Lauroyl])FIAFK([PEG2′-PEG2′-γGlu-Lauroyl])VEGG-NH2 [SEQ ID NO: 478] |
| 73.5 | 0.0624 | 0.0845 | 20 | 20 | 20 | 20 | H[Aib]EGS[αMeF]TSDV[αMeS]SYK([PEG2′-PEG2′-γGlu-Lauroyl])EGK([PEG2′-PEG2′-γGlu-Lauroyl])AA[αMeK]EFIAK([PEG2′-PEG2′-γGlu-Lauroyl])VVEGG-NH2 [SEQ ID NO: 468] |
| 186 | 0.132 | 0.239 | 19.8 | 19.8 | 19.8 | 19.8 | H[Aib]EGS[αMeF]TSDV[αMeS]SK([PEG2′-PEG2′-γGlu-Lauroyl])LEK([PEG2′-PEG2′-γGlu-Lauroyl])EAA[αMeK]EFIAFK([PEG2′-PEG2′-γGlu-Lauroyl])VEGG-NH2 [SEQ ID NO: 479] |
